The source of these data is publication PMC5923229.

Usually Kd stands for the concentration at which binding is half-saturated. Low values mean higher affinity, high ones lower affinity.

The target of assay [1] is H46R/H48Q SOD1 with ebselen conjugated at Cys111 (UniProt P00441). As to the kind of experiment: native MS; nanoESI of SOD1 at different protein concentrations in 200 mM NH4OAc (pH 6.8), gentle conditions; monomer and dimer signal compared; dimer to monomers.
Assay [2] addresses H46R/H48Q SOD1 artificial copper site mutant (UniProt P00441). The assay is described as above.

Consider “H46R/H48Q SOD1 with ebselen conjugated at Cys111 (from UniProt P00441 2-154) (enzyme)”, for which the Kd in assay [1] was found to be 220 nM.

In turn, “H46R/H48Q SOD1 artificial copper site mutant (from UniProt P00441 2-154) (enzyme)” gave a Kd in assay [2] of 5.3 µM.
